Our source for the extent of digestion (cleavage of rHV1) values is patent US5296352.

For the assay, the target named is recombinant hirudin variant HV1 (Hirudo medicinalis).

“Staphylococcus aureus strain V8 protease (from UniProt P0C1U8) (enzyme)”: the extent of digestion (cleavage of rHV1) was 97%.
As to lysyl endopeptidase (enzyme), the extent of digestion (cleavage of rHV1) stood at 100%.
